From the supplement of paper PMC5998384

Columns and labels:
HeLa Kyoto [1] = test: solubility change mitosis vs G1/S (difference of NP-40 vs SDS log2 ratios) (log2 ratio difference); higher = more soluble in mitosis
HeLa Kyoto [2] = test: solubility in G1/S (NP-40 vs SDS abundance) (log2 ratio); higher = more soluble; conditions: cell cycle stage: G1/S
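Wherever solubility change mitosis vs G1/S (difference of NP-40 vs SDS log2 ratios) is given: synchronized HeLa Kyoto cells (double thymidine block for G1/S, nocodazole release for mitosis), protein amounts in NP-40 versus SDS lysates quantified by mass spectrometry, three biological replicates.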
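Wherever solubility in G1/S (NP-40 vs SDS abundance) is given: HeLa Kyoto cells arrested at G1/S by double thymidine block, proteins quantified by TMT10plex mass spectrometry in mild NP-40 versus SDS extracts, three biological replicates.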

Sequence | solubility change mitosis (log2) (HeLa Kyoto [1]) | solubility in G1/S (log2) (HeLa Kyoto [2])
MAAAVAAPLAAGGEEAAATTSVPGSPGLPGRRSAERALEEAVATGTLNLSNRRLKHFPRGAARSYDLSDITQADLSRNRFPEVPEAACQLVSLEGLSLYHNCLRCLNPALGNLTALTYLNLSRNQLSLLPPYICQLPLRVLIVSNNKLGALPPDIGTLGSLRQLDVSSNELQSLPSELCGLSSLRDLNVRRNQLSTLPEELGDLPLVRLDFSCNRVSRIPVSFCRLRHLQVILLDSNPLQSPPAQVCLKGKLHIFKYLSTEAGQRGSALGDLAPSRPPSFSPCPAEDLFPGHRYDGGLDSGFHSVDSGSKRWSGNESTDEFSELSFRISELAREPRGPRERKEDGSADGDPVQIDFIDSHVPGEDEERGTVEEQRPPELSPGAGDRERAPSSRREEPAGEERRRPDTLQLWQERERRQQQQSGAWGAPRKDSLLKPGLRAVVGGAAAVSTQAMHNGSPKSSASQAGAAAGQGAPAPAPASQEPLPIAGPATAPAPRPLGSIQRPNSFLFRSSSQSGSGPSSPDSVLRPRRYPQVPDEKDLMTQLRQVLESRLQRPLPEDLAEALASGVILCQLANQLRPRSVPFIHVPSPAVPKLSALKARKNVESFLEACRKMGVPEADLCSPSDLLQGTARGLRTALEAVKRVGGKALPPLWPPSGLGGFVVFYVVLMLLLYVTYTRLLGS [LRCH4] | -0.305 | 0.302
MAAEEVLQTVDHYKTEIERLTKELTETTHEKIQAAEYGLVVLEEKLTLKQQYDELEAEYDSLKQELEQLKEAFGQSFSIHRKVAEDGETREETLLQESASKEAYYLGKILEMQNELKQSRAVVTNVQAENERLTAVVQDLKENNEMVELQRIRMKDEIREYKFREARLLQDYTELEEENITLQKLVSTLKQNQVEYEGLKHEIKRFEEETVLLNSQLEDAIRLKEIAEHQLEEALETLKNEREQKNNLRKELSQYISLNDNHISISVDGLKFAEDGSEPNNDDKMNGHIHGPLVKLNGDYRTPTLRKGESLNPVSDLFSELNISEIQKLKQQLMQVEREKAILLANLQESQTQLEHTKGALTEQHERVHRLTEHVNAMRGLQSSKELKAELDGEKGRDSGEEAHDYEVDINGLEILECKYRVAVTEVIDLKAEIKALKEKYNKSVENYTDEKAKYESKIQMYDEQVTSLEKTTKESGEKMAHMEKELQKMTSIANENHSTLNTAQDELVTFSEELAQLYHHVCLCNNETPNRVMLDYYRQSRVTRSGSLKGPDDPRGLLSPRLARRGVSSPVETRTSSEPVAKESTEASKEPSPTKTPTISPVITAPPSSPVLDTSDIRKEPMNIYNLNAIIRDQIKHLQKAVDRSLQLSRQRAAARELAPMIDKDKEALMEEILKLKSLLSTKREQIATLRAVLKANKQTAEVALANLKNKYENEKAMVTETMTKLRNELKALKEDAATFSSLRAMFATRCDEYVTQLDEMQRQLAAAEDEKKTLNTLLRMAIQQKLALTQRLEDLEFDHEQSRRSKGKLGKSKIGSPKVSGEASVTVPTIDTYLLHSQGPQTPNIRVSSGTQRKRQFSPSLCDQSRPRTSGASYLQNLLRVPPDPTSTESFLLKGPPSMSEFIQGHRLSKEKRLTVAPPDCQQPAASVPPQCSQLAGRQDCPTVSPDTALPEEQPHSSSQCAPLHCLSKPPHP [BICD1] | -0.259 | 0.652
MAAGCCGVKKQKLSSSPPSGSGGGGGASSSSHCSGESQCRAGELGLGGAGTRLNGLGGLTGGGSGSGCTLSPPQGCGGGGGGIALSPPPSCGVGTLLSTPAAATSSSPSSSSAASSSSPGSRKMVVSAEMCCFCFDVLYCHLYGYQQPRTPRFTNEPYPLFVTWKIGRDKRLRGCIGTFSAMNLHSGLREYTLTSALKDSRFPPMTRDELPRLFCSVSLLTNFEDVCDYLDWEVGVHGIRIEFINEKGSKRTATYLPEVAKEQGWDHIQTIDSLLRKGGYKAPITNEFRKTIKLTRYRSEKMTLSYAEYLAHRQHHHFQNGIGHPLPPYNHYS [AMMECR1] | -0.37 | 0.255
MAANSSGQGFQNKNRVAILAELDKEKRKLLMQNQSSTNHPGASIALSRPSLNKDFRDHAEQQHIAAQQKAALQHAHAHSSGYFITQDSAFGNLILPVLPRLDPE [INIP] | 0.407 | -0.135
MAAPCLLRQGRAGALKTMLQEAQVFRGLASTVSLSAESGKSEKGQPQNSKKQSPPKKPAPVPAEPFDNTTYKNLQHHDYSTYTFLDLNLELSKFRMPQPSSGRESPRH [NDUFV3] | -0.0477 | 0.224
MAAQAAAAAQAAAAQAAQAEAADSWYLALLGFAEHFRTSSPPKIRLCVHCLQAVFPFKPPQRIEARTHLQLGSVLYHHTKNSEQARSHLEKAWLISQQIPQFEDVKFEAASLLSELYCQENSVDAAKPLLRKAIQISQQTPYWHCRLLFQLAQLHTLEKDLVSACDLLGVGAEYARVVGSEYTRALFLLSKGMLLLMERKLQEVHPLLTLCGQIVENWQGNPIQKESLRVFFLVLQVTHYLDAGQVKSVKPCLKQLQQCIQTISTLHDDEILPSNPADLFHWLPKEHMCVLVYLVTVMHSMQAGYLEKAQKYTDKALMQLEKLKMLDCSPILSSFQVILLEHIIMCRLVTGHKATALQEISQVCQLCQQSPRLFSNHAAQLHTLLGLYCVSVNCMDNAEAQFTTALRLTNHQELWAFIVTNLASVYIREGNRHQEVLYSLLERINPDHSFPVSSHCLRAAAFYVRGLFSFFQGRYNEAKRFLRETLKMSNAEDLNRLTACSLVLLGHIFYVLGNHRESNNMVVPAMQLASKIPDMSVQLWSSALLRDLNKACGNAMDAHEAAQMHQNFSQQLLQDHIEACSLPEHNLITWTDGPPPVQFQAQNGPNTSLASLL [MAU2] | -0.0035 | -0.154
MAATDIARQVGEGCRTVPLAGHVGFDSLPDQLVNKSVSQGFCFNILCVGETGLGKSTLMDTLFNTKFEGEPATHTQPGVQLQSNTYDLQESNVRLKLTIVSTVGFGDQINKEDSYKPIVEFIDAQFEAYLQEELKIRRVLHTYHDSRIHVCLYFIAPTGHSLKSLDLVTMKKLDSKVNIIPIIAKADAISKSELTKFKIKITSELVSNGVQIYQFPTDDESVAEINGTMNAHLPFAVIGSTEELKIGNKMMRARQYPWGTVQVENEAHCDFVKLREMLIRVNMEDLREQTHTRHYELYRRCKLEEMGFKDTDPDSKPFSLQETYEAKRNEFLGELQKKEEEMRQMFVQRVKEKEAELKEAEKELHEKFDRLKKLHQDEKKKLEDKKKSLDDEVNAFKQRKTAAELLQSQGSQAGGSQTLKRDKEKKNNPWLCTE [SEPT6] | -0.0909 | 0.186
MAATDLERFSNAEPEPRSLSLGGHVGFDSLPDQLVSKSVTQGFSFNILCVGETGIGKSTLMNTLFNTTFETEEASHHEACVRLRPQTYDLQESNVQLKLTIVDAVGFGDQINKDESYRPIVDYIDAQFENYLQEELKIRRSLFDYHDTRIHVCLYFITPTGHSLKSLDLVTMKKLDSKVNIIPIIAKADTISKSELHKFKIKIMGELVSNGVQIYQFPTDDEAVAEINAVMNAHLPFAVVGSTEEVKVGNKLVRARQYPWGVVQVENENHCDFVKLREMLIRVNMEDLREQTHSRHYELYRRCKLEEMGFQDSDGDSQPFSLQETYEAKRKEFLSELQRKEEEMRQMFVNKVKETELELKEKERELHEKFEHLKRVHQEEKRKVEEKRRELEEETNAFNRRKAAVEALQSQALHATSQQPLRKDKDKKNRSDIGAHQPGMSLSSSKVMMTKASVEPLNCSSWWPAIQCCSCLVRDATWREGFL [SEPT8] | -0.0125 | -0.0316
